Test results as given in patent CN110577600A (SHANGHAI INST MATERIA MEDICA CAS; NANJING LEADS BIOLABS …, dated 2019).

Biological target: T1, 重组人GPC3蛋白 (human, UniProt P51654 25-559, limits assumed)
T1 construct: also called 磷脂酰肌醇聚糖蛋白3
Assay: SPR, Biacore X100; antibody captured on goat anti-human Fc gamma CM5 chip, human GPC3 10nM-80nM as analyte, 1:1 Langmuir model

T1 sequence (P51654 25-559 limits assumed): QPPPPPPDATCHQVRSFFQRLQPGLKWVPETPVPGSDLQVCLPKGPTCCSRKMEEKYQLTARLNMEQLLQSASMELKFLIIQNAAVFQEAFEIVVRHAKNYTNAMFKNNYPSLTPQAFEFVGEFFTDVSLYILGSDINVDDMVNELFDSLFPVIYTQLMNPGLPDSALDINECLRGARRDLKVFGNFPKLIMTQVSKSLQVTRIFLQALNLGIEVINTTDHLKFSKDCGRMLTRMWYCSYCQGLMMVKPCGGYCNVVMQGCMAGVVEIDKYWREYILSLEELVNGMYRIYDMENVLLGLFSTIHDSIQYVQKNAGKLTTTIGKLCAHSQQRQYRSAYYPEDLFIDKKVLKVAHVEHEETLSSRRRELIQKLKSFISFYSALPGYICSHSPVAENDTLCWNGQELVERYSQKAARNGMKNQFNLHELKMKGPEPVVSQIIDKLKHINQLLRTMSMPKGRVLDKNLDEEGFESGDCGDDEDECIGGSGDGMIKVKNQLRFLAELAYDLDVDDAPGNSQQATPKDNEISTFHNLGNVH

B1: 抗体GPC3-6 (antibody, human IgG1, lambda, V domains shown)
VH: QVHLVQSGAEVQKPGSSVKVSCKASGGTFSSYGINWVRQAPGQGLEWMGWISAYNGNTNYAQKLQGRVTMTTDTSTSTAYMELRSLRSDDTAVYYCARGSGLLPRIGGYWGKGTMVTVSS
VL: LSSELTQDPAVSVPLGQTVRITCRGDSLRTFYATWYQQKPGQAPVRVIYRKNNRPSGIPDRFSGSSSGNTASLTITGAQAEDEADYYCNSRDSSGDHLVFGTGTKLTVLG
notes: Selected from a phage display antibody library against GPC3; In SPR it was captured through goat anti-human Fc gamma; also called 人抗GPC3抗体GPC3-6; 抗GPC3抗体
- Kd: 3.77 nM
- koff: 0.000719 s⁻¹
- kon: 190000 M⁻¹ s⁻¹
